From patent US20110003343, “CONJUGATES OF BIOMOLECULES TO NANOPARTICLES” (LIFE TECHNOLOGIES CORPORATION, published 2011)
Residue numbers refer to the chain shown, from its start.

Tests used:
[1] = target: Phi-29 (exo-) DNA polymerase exo- (substitutions not given) (Bacteriophage phi29) (UniProt P03680); conditions: tpol, unit not shown; unit assumed
[2] = target: Phi-29 (exo-) T373R exo- (substitutions not given), T373R (Bacteriophage phi29) (UniProt P03680); conditions: tpol, unit not shown; unit assumed
[3] = target: Phi-29 (exo-) T373Y exo- (substitutions not given), T373Y (Bacteriophage phi29) (UniProt P03680); conditions: tpol, unit not shown; unit assumed
[4] = target: T1, His-tagged F-linker Phi29 DNA polymerase D169A (exo-) (Bacteriophage phi29, UniProt P03680 SEQ:27-596); test: FRET binding; BSA-treated dots; dATP present; conditions: tags: His tag and F-linker, linked to quantum dot; label: 3' Alexa Fluor 647; hairpin with 5' overhang
T1 chain: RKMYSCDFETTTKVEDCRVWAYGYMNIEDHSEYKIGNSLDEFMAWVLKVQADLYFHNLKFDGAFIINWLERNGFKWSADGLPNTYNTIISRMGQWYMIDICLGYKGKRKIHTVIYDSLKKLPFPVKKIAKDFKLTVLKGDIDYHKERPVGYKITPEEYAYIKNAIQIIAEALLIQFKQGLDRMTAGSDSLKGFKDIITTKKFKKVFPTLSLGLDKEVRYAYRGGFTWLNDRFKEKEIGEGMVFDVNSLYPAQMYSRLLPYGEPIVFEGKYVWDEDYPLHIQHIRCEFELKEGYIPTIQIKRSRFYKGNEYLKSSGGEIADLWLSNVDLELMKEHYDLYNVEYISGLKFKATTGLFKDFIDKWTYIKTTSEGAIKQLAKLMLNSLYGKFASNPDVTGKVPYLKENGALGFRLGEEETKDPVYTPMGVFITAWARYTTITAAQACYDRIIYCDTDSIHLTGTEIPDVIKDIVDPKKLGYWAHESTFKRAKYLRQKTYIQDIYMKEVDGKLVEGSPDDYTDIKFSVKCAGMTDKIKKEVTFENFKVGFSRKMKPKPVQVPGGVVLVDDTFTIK
From the text: The binding reactions contained: 1× extension buffer, A1 nanoparticles-phi29 conjugates (or phi29 non-conjugated), oligonucleotide 229, and dATP. The binding reactions were serially diluted. […] The ratio of 605 nm/670 nm signals is depicted in FIG. 15C.

[5] = target: T1, His-tagged F-linker Phi29 DNA …; test: FRET binding; Mg/Mn buffer; untreated, GST- or UDG/UGI-treated dots; conditions: tags: His tag and F-linker, linked to quantum dot; label: 3' Alexa Fluor 647; hairpin with 5' overhang
[6] = target: T2, HP1 Phi29 DNA polymerase D12A/D66A (Bacteriophage phi29, UniProt P03680 SEQ:26-600); test: FRET binding; 50 mM Tris pH 7.5, 50 mM NaCl, 10 mM MgCl2, 0.5 mM MnCl2; oligo 199 or 192 used; conditions: tags: N-terminal His tag, linked to quantum dot; label: 3' Alexa Fluor 647; hairpin with 5' overhang
T2 chain: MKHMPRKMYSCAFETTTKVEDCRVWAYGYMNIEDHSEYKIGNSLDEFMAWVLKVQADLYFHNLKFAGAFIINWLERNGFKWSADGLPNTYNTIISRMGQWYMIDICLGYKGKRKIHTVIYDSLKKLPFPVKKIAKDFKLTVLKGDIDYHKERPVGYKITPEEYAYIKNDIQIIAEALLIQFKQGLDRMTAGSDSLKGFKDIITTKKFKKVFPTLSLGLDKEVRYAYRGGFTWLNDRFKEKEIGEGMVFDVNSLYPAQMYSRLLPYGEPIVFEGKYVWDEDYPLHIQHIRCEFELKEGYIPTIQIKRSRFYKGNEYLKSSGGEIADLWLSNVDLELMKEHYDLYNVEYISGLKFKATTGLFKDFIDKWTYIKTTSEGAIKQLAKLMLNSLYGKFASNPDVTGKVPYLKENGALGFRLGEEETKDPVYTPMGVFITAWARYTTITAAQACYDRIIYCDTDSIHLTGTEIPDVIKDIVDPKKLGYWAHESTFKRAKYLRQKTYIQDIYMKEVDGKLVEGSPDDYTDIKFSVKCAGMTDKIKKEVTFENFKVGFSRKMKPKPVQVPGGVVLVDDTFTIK

[7] = target: T3, PKA-tagged Phi29 DNA polymerase (Bacteriophage phi29, UniProt P03680 SEQ:30-599); test: FRET binding; conditions: label: 3' Alexa Fluor 647-dC; hairpin with 5' overhang
T3 chain: T1 chain with A164D
Procedure: 50 μl of the primer/template was transferred from each well of row two into 50 μl of the sample in each well of row one.
The microtiter plate was placed on the plate reader which was set to measure fluorescence at 605 nm and 670 nm with excitation at 450 nm. The results are depicted in FIG. 11. […] The ratio of 605 nm/670 nm signals is depicted in FIG. 11C.

[8] = target: T4, Phi29 DNA polymerase (HRP-treated quantum dot conjugate) (Bacteriophage phi29, UniProt P03680 P03680:1-575); test: FRET binding; 250 nM oligo; conditions: tags: His tag, label: 3' Alexa Fluor 647, hairpin with 5' overhang
T4 chain: T2 chain with A12D, A66D
Procedure: and 40 nM of the nanoparticle-polymerase conjugates in 50 mM Tris, 50 mM NaCl and 10 mM MgCl₂. The reaction was excited at 450 nm and emission (e.g., FRET) was detected as a ratio of intensities at 605/670 (dot emission/ALEXA FLUOR 647 emission).

CGTTAACCGCCCGCTCCTTTGCAAC / GTTGCAAAGGAGCGGGCG [stopped-flow template/primer]
activity [1]: 11 ms | activity [2]: 15 ms | activity [3]: 14 ms

TTTTTGCGGGTGACAGGTTTTTCCTGTCACCC (structured_DNA) [oligo 229]
binding result [4]: binds

TTATCTTTGTGGGTGACAGGTTTTTCCTGTCACCC (structured_DNA) [oligo 199]
binding result [5]: binds | binding result [6]: binds

TTATCTTTGTGGGTGACAGGTTTTTCCTGTCACCC (structured_DNA) [JX338]
binding result [7]: binds

TTATCTTTGTGGGTGACAGGTTTTTCCTGTCACC (structured_DNA) [AF647 hairpin (Example 15)]
binding result [8]: binds
